In patent publication US20170198056A1 (MEDICINAL CHEMISTRY PHARMACEUTICALS, published 2017):
*: point of attachment. αGalNAc = CC(=O)N[C@@H]1[C@@H](O)[C@@H](O)[C@@H](CO)O[C@@H]1*

Columns and labels:
[1] = molecular target: T1, Compound 15: 5-oxohexanoyl-Ser-Ala-Ser-Thr-Gly-His-Ala-Thr(Tn)-Pro-Leu-Pro-Val-Thr-Asp-Thr-Ser-Cys-NH2 (human); assay: glycopeptide microarray, Cy3 anti-mouse IgG
T1 construct: also called glycopeptide in which Tn has been modified in the tandem unit peptide of MUC4
T1 peptide: {5‑oxohexanoyl}-SASTGHAT(αGalNAc)PLPVTDTSC-NH2
Description: (§1) A substrate for an immobilized sugar chain array (made by Sumitomo Bakelite) was treated for 2 hours at 37° C. with 2 M HCl and the t-butoxycarbonyl group (Boc group) protection was removed. The product was washed twice with water and then dried to place aminoxy groups on the surface of the substrate. A spotting solution (25 mM AcOH/pyridine, 0.005% Triton X-100, pH 5.4) was added to the various synthetic glycopeptides shown in Table 1 to dissolve them. A spotter (BioChip Arrayer, made by Cartesion) employed a spot pin (CMP, pin diameter 0.4 mm, Arraylt Corp.) to spot the substrate. A reaction was conducted for 1 hour at 80° C. to immobilize the glycopeptides on the substrate. Washing was conducted once with water, the product was immersed in 10 mg/mL succinic anhydride, a reaction was conducted for 3 hours at room temperature, and the unreacted aminooxy groups were protected. Washing was conducted twice with water and the product was dried.
(§2) The reaction supernatant was diluted 10-fold with the reaction solution given below. A Hybricover (made by Sumitomo Bakelite) was placed on the immobilized glycopeptide array, 70 μL of the diluted solution was spread out, and a reaction was conducted for 2 hours at room temperature. […] Fluorescent intensity of Cy3 was measured with a scanner (Typhoon TRIO+, GE Healthcare). […]

[2] = molecular target: T2, Compound 13: … (human); assay: glycopeptide microarray, Cy3 anti-mouse IgG
T2 construct: also called glycopeptide in which Tn has been modified in the tandem unit peptide of MUC2
T2 peptide: {5‑oxohexanoyl}-PPTT(αGalNAc)T(αGalNAc)PSPPPTSTT(αGalNAc)T(αGalNAc)LPPT-NH2
Description: as §1, §2

B1: Monoclonal antibody SN-101 (antibody, V domains shown)
VH: EVNLEESGGGLVQPGGSMKLSCVASGFTFSNYWMNWVRQSPEKGLEWVAQIRLKSDNYATHYAESVKGRFTISRDDSKSSVYLQMNNLRAEDTGIYYCTGGVFDYWGQGTTLTVSS
VL: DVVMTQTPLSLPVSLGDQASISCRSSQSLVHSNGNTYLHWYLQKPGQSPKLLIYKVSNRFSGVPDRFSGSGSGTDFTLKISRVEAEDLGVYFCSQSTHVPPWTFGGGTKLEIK
notes: Mouse monoclonal antibody from a hybridoma; it was purified on Protein G and detected with anti-mouse IgG; The array assay used culture supernatant diluted 10-fold; also called antibody of hybridoma strain 3A9-4B1 (NITE BP-01845)
Which results are given for B1?
binding result [1]: no binding; binding result [2]: no binding
